This passage reports Kd and fold lower affinity than HKa or HKa-D5 results from patent US20050124794A1, “Cell surface tropomyosin as a target of angiogenesis inhibition” (priority 2002, published 2005).

Test [1] has as its target Tropomyosin (Tpm) exposed on the surface of proliferating human umbilical vein endothelial cells (human). Nature of the test: biotin-HKa on unfixed subconfluent HUVEC in 96-well plates, 4 °C, with and without 10 µM Zn2+, streptavidin-peroxidase; nonlinear regression.
Test [2] has as its target Chicken gizzard tropomyosin (Tpm), purified (chicken). Nature of the test: competition ELISA against 10 nM biotin-HKa on immobilized chicken gizzard Tpm, 10 uM ZnCl2; Kd by non-linear regression. In general terms: An ELISA detects its analyte on a solid surface through an enzyme-linked reagent.
Test [3] shares this target. The test is described as follows: competition with 10 nM biotin-HKa on plate coated with chicken gizzard Tpm, 10 µM ZnCl2.
Test [4] shares this target. Nature of the test: plate assays on immobilized chicken gizzard Tpm (FIGS. 14 and 15).

Chain of Endostatin (ligand) (P39060 1572-1754): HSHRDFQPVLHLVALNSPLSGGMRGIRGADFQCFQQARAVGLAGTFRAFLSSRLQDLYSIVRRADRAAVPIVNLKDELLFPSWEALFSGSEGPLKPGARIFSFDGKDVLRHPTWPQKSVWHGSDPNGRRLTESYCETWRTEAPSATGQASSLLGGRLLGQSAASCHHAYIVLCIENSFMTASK
Chain of Chicken gizzard tropomyosin (Tpm), purified (chicken) (chain, as listed by the source limits assumed): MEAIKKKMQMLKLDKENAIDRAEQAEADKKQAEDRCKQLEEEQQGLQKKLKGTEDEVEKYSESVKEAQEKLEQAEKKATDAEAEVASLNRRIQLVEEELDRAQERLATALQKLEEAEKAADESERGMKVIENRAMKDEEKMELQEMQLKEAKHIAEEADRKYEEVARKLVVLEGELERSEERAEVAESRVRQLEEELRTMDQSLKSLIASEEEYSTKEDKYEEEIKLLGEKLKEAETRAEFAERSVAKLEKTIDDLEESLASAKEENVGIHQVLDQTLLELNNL

With “Two-chain high molecular weight kininogen (HKa) (from UniProt P01042 19-380; P01042 390-644) (ligand)”, the dissociation constant (Kd) in test [1] was found to be 2.5 nM.

Regarding Endostatin (ligand), the Kd amounted to 1970 nM in test [2] and 2000 nM in test [3]. Also, the fold lower affinity than HKa or HKa-D5 in test [4] was determined as 1000 fold.

As a reminder, the Kd is the equilibrium constant for the complex coming apart.
